Laboratory results from US20200262918A1 (Stanford University, published 2020).

B1: Humanized KWAR23 anti-SIRPα antibody (antibody, V domains shown)
VH: EVQLVQSGAEVKKPGATVKISCKVSGFNIKDYYIHWVQQAPGKGLEWIGRIDPEDGETKYAPKFQDRATITADTSTDTAYMELSSLRSEDTAVYYCARWGAYWGQGTLVTVSS
VL: QIVLTQSPPTLSLSPGERVTLTCSASSSVSSSYLYWYQQKPGQAPKLWIYSTSNLASGVPARFSGSGSGTSYTLTISSLQPEDFAVYFCHQWSSYPRTFGAGTKLEIK
notes: The phagocytosis assays used HuKwar-G1, a human IgG1 with N297A; also called HuKwar-G1; HuKWar-G1
B2: Mouse KWAR23 anti-SIRPα antibody (antibody, V domains shown)
VH: EVQLQQSGAELVKPGASVKLSCTASGFNIKDYYIHWVQQRTEQGLEWIGRIDPEDGETKYAPKFQDKATITADTSSNTAYLHLSSLTSEDTAVYYCARWGAYWGQGTLVTVSS
VL: QIVLTQSPAIMSASPGEKVTLTCSASSSVSSSYLYWYQQKPGSSPKLWIYSTSNLASGVPARFSGSGSGTSYSLTISSMEAEDAASYFCHQWSSYPRTFGAGTKLELK
notes: also called mouse antibody; mKWAR

Biological target: human SIRPα (human, UniProt P78324 31-373)
Sequence (P78324 31-504): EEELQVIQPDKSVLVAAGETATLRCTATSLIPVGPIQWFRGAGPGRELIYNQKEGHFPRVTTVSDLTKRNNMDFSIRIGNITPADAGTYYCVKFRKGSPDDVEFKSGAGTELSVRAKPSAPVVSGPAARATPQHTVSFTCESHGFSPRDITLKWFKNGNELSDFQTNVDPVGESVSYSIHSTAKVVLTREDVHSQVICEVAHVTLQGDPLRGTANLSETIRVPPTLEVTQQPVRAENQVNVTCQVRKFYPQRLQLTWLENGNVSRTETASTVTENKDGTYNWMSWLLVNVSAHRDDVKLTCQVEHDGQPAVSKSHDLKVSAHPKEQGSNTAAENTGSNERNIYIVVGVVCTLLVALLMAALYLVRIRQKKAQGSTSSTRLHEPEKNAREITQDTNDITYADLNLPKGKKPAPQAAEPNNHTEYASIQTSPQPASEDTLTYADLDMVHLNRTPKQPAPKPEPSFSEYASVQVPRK
Assay: Biacore (SPR), format not stated

Binder	Kd
B1	1.54 nM
B2	1.18 nM
